The test has as its target - (UniProt P08069). Kind of test: ELISA. Particulars: scFv.

The source of these data is US20260204353A1.

Usually EC50 stands for the midpoint of the concentration-response curve. Read a low EC50 as a more potent agent.

Take “Teprotumumab scFv mutant into which the consensus sequences were introduced (H16G, L60D, and L85D)”: the EC50 is 24 nM.
